Tests used:
AU-rich RNA (5-AU) = experiment: Gel retardation assay, avidity to AU-rich RNA; format: binding
Text: Since the AID protein has a functional cytidine deaminase activity as well as a structural similarity to APOBEC-1, to examine RNA editing activity in the AID protein, avidity to AU-rich RNA (5-AU) and apoB RNA (which are RNA substrates for APOBEC-1) was examined.

[1] = Cytidine deaminase activity of the AID protein ([3H]deoxycytidine to deoxyuridine, TLC); format: biochemical; settings: AID-GST fusion protein 2 to 600 ng, pH 7.5, 2 to 4 hours
Description: A cytidine deaminase activity of AID was measured by the same method as in the previous report (J Biol. Chem. 270:14768-14775, 1995).
The purified AID-GST fusion protein prepared in the above (2, 4, 6, 8, 10, 20, 40, 60, 100, 200, 300, 400, and 600 ng) was incubated in the buffer (pH 7.5, the total amount 10 μl) containing 45 mM Tris with 3.3 μCi [^3H] deoxycytidine (24.8 Ci/mmol, DuPont) and 250 μM cytidine for 2 to 4 hours. The reaction was terminated by adding deoxycytidine (2 μl of 10 μg/ml) and deoxyuridine (2 μl of 10 μg/ml). Insoluble substances were removed by centrifugation, and the reaction mixture (4 μl) was subjected to the polyethylene imine-cellulose thin layer chromatography plate (VWR). The plate was developed in isopropyl alcohol/10% HCl (7:2 v/v). The plate was exposed to ultraviolet light (254 nm) for visualization and bands corresponding to deoxycytidine and deoxyuridine were collected, and added to Ultima Gold scintillation solution to be quantified by liquid scintillation photometer (Packard)

B1: AID protein: activation-induced cytidine deaminase, novel mouse protein (SEQ ID NO:2), tested as purified GST fusion protein (protein)
chain: MDSLLMKQKKFLYHFKNVRWAKGRHETYLCYVVKRRDSATSCSLDFGHLRNKSGCHVELLFLRYISDWDLDPGRCYRVTWFTSWSPCYDCARHVAEFLRWNPNLSLRIFTARLYFCEDRKAEPEGLRRLHRAGVQIGIMTFKDYFYCWNTFVENRERTFKAWEGLHENSVRLTRQLRRILLPLYEVDDLRDAFRMLGF
modifications: left off: a dimerising Fc or GST
- avidity to AU-rich RNA (5-AU) (AU-rich RNA (5-AU)): did not show avidity
- cytidine deaminase activity [1]: concentration-dependent cytidine deaminase activity
